Source: PMC2788227 (PLoS ONE, 2009)

Biological target: the molecule itself
Test: SEC

B1: Francisella tularensis subsp. holarctica LVS 1-deoxy-D-xylulose 5-phosphate reductoisomerase (MEP sy (enzyme)
chain: MFKKTKITILGATGSIGDSTLAVIRETNDFEVFALTAFSNVEKLAELCQEFKPKFAVVPDLSKKQKLQSLVTDVEVLVGESGLEKVSSLAEIDIVMSAIVGIAGLKPTFAAAKAGKKILLANKESLVTAGHLLIDEVVKNNAQLIPVDSEHNAIFQCIDNHDKKCLPEIDKIILTASGGPFRDKQLHELTDVTPEQACNHPNWQMGRKISVDSSTMVNKALEVIEAYWLFSVSADKIGVLIHPQSVTHSIVRYVDGSYIAQLGVPDMKTPIANAMYYPKRGSVNVESLDFTKYQLTFREACFERFEALKIVFNNLQNKNYAANIVFNAANEELVAAFLNKKIKYLEIIEVNKKVTKELNFENPKNIEEVFEIDRKTREYVDSVLG
  stoichiometry N: 2
